Assay results published in patent publication US20240400654A1.
Values joined by “and” are separate entries in the source; they are usually repeats but may differ in a detail not shown here. Equal entries are not always repeated.

B1: KB001 mouse Fab VL V29I (Fab, V domains shown)
VH: EVQLKQSGPGLVAPSQSLSITCTVSGFSLSIYSVHWVRQPPGKGLEWLGMIWGGGSSDYNSALKSRLSISKDNSKSQVFLKMNSLQTDDTAMYYCARNGNFYAMDYWGQGTSVTVSS
VL: QIVLTQSPAIMSASLGERVTMTCTASSSISSSFLHWYQQKPGSSPQLWIYSTSNLASGVPARFSGSGSGTSYSLTISSMEAEDAATYYCHQYHHSPYIYTFGGGTKLEIK
B2: KB001 mouse Fab VL S30H (Fab, V domains shown)
VH: EVQLKQSGPGLVAPSQSLSITCTVSGFSLSIYSVHWVRQPPGKGLEWLGMIWGGGSSDYNSALKSRLSISKDNSKSQVFLKMNSLQTDDTAMYYCARNGNFYAMDYWGQGTSVTVSS
VL: QIVLTQSPAIMSASLGERVTMTCTASSSVHSSFLHWYQQKPGSSPQLWIYSTSNLASGVPARFSGSGSGTSYSLTISSMEAEDAATYYCHQYHHSPYIYTFGGGTKLEIK
B3: KB001 mouse Fab VL S32A (Fab, V domains shown)
VH: EVQLKQSGPGLVAPSQSLSITCTVSGFSLSIYSVHWVRQPPGKGLEWLGMIWGGGSSDYNSALKSRLSISKDNSKSQVFLKMNSLQTDDTAMYYCARNGNFYAMDYWGQGTSVTVSS
VL: QIVLTQSPAIMSASLGERVTMTCTASSSVSSAFLHWYQQKPGSSPQLWIYSTSNLASGVPARFSGSGSGTSYSLTISSMEAEDAATYYCHQYHHSPYIYTFGGGTKLEIK
B4: KB001 mouse Fab VL S30K (Fab, V domains shown)
VH: EVQLKQSGPGLVAPSQSLSITCTVSGFSLSIYSVHWVRQPPGKGLEWLGMIWGGGSSDYNSALKSRLSISKDNSKSQVFLKMNSLQTDDTAMYYCARNGNFYAMDYWGQGTSVTVSS
VL: QIVLTQSPAIMSASLGERVTMTCTASSSVKSSFLHWYQQKPGSSPQLWIYSTSNLASGVPARFSGSGSGTSYSLTISSMEAEDAATYYCHQYHHSPYIYTFGGGTKLEIK
B5: KB001 mouse Fab VL S31D (Fab, V domains shown)
VH: EVQLKQSGPGLVAPSQSLSITCTVSGFSLSIYSVHWVRQPPGKGLEWLGMIWGGGSSDYNSALKSRLSISKDNSKSQVFLKMNSLQTDDTAMYYCARNGNFYAMDYWGQGTSVTVSS
VL: QIVLTQSPAIMSASLGERVTMTCTASSSVSDSFLHWYQQKPGSSPQLWIYSTSNLASGVPARFSGSGSGTSYSLTISSMEAEDAATYYCHQYHHSPYIYTFGGGTKLEIK
B6: KB001 mouse Fab VL V29L (Fab, V domains shown)
VH: EVQLKQSGPGLVAPSQSLSITCTVSGFSLSIYSVHWVRQPPGKGLEWLGMIWGGGSSDYNSALKSRLSISKDNSKSQVFLKMNSLQTDDTAMYYCARNGNFYAMDYWGQGTSVTVSS
VL: QIVLTQSPAIMSASLGERVTMTCTASSSLSSSFLHWYQQKPGSSPQLWIYSTSNLASGVPARFSGSGSGTSYSLTISSMEAEDAATYYCHQYHHSPYIYTFGGGTKLEIK
B7: KB001 mouse Fab VL S30E (Fab, V domains shown)
VH: EVQLKQSGPGLVAPSQSLSITCTVSGFSLSIYSVHWVRQPPGKGLEWLGMIWGGGSSDYNSALKSRLSISKDNSKSQVFLKMNSLQTDDTAMYYCARNGNFYAMDYWGQGTSVTVSS
VL: QIVLTQSPAIMSASLGERVTMTCTASSSVESSFLHWYQQKPGSSPQLWIYSTSNLASGVPARFSGSGSGTSYSLTISSMEAEDAATYYCHQYHHSPYIYTFGGGTKLEIK
B8: KB001 mouse Fab VL S30D (Fab, V domains shown)
VH: EVQLKQSGPGLVAPSQSLSITCTVSGFSLSIYSVHWVRQPPGKGLEWLGMIWGGGSSDYNSALKSRLSISKDNSKSQVFLKMNSLQTDDTAMYYCARNGNFYAMDYWGQGTSVTVSS
VL: QIVLTQSPAIMSASLGERVTMTCTASSSVDSSFLHWYQQKPGSSPQLWIYSTSNLASGVPARFSGSGSGTSYSLTISSMEAEDAATYYCHQYHHSPYIYTFGGGTKLEIK
B9: KB001 mouse Fab VL S30R (Fab, V domains shown)
VH: EVQLKQSGPGLVAPSQSLSITCTVSGFSLSIYSVHWVRQPPGKGLEWLGMIWGGGSSDYNSALKSRLSISKDNSKSQVFLKMNSLQTDDTAMYYCARNGNFYAMDYWGQGTSVTVSS
VL: QIVLTQSPAIMSASLGERVTMTCTASSSVRSSFLHWYQQKPGSSPQLWIYSTSNLASGVPARFSGSGSGTSYSLTISSMEAEDAATYYCHQYHHSPYIYTFGGGTKLEIK
B10: KB001 mouse Fab VL S30I (Fab, V domains shown)
VH: EVQLKQSGPGLVAPSQSLSITCTVSGFSLSIYSVHWVRQPPGKGLEWLGMIWGGGSSDYNSALKSRLSISKDNSKSQVFLKMNSLQTDDTAMYYCARNGNFYAMDYWGQGTSVTVSS
VL: QIVLTQSPAIMSASLGERVTMTCTASSSVISSFLHWYQQKPGSSPQLWIYSTSNLASGVPARFSGSGSGTSYSLTISSMEAEDAATYYCHQYHHSPYIYTFGGGTKLEIK
B11: KB001 mouse Fab VL S32W (Fab, V domains shown)
VH: EVQLKQSGPGLVAPSQSLSITCTVSGFSLSIYSVHWVRQPPGKGLEWLGMIWGGGSSDYNSALKSRLSISKDNSKSQVFLKMNSLQTDDTAMYYCARNGNFYAMDYWGQGTSVTVSS
VL: QIVLTQSPAIMSASLGERVTMTCTASSSVSSWFLHWYQQKPGSSPQLWIYSTSNLASGVPARFSGSGSGTSYSLTISSMEAEDAATYYCHQYHHSPYIYTFGGGTKLEIK
B12: KB001 mouse Fab VL S32P (Fab, V domains shown)
VH: EVQLKQSGPGLVAPSQSLSITCTVSGFSLSIYSVHWVRQPPGKGLEWLGMIWGGGSSDYNSALKSRLSISKDNSKSQVFLKMNSLQTDDTAMYYCARNGNFYAMDYWGQGTSVTVSS
VL: QIVLTQSPAIMSASLGERVTMTCTASSSVSSPFLHWYQQKPGSSPQLWIYSTSNLASGVPARFSGSGSGTSYSLTISSMEAEDAATYYCHQYHHSPYIYTFGGGTKLEIK
B13: KB001 mouse Fab VL S30T (Fab, V domains shown)
VH: EVQLKQSGPGLVAPSQSLSITCTVSGFSLSIYSVHWVRQPPGKGLEWLGMIWGGGSSDYNSALKSRLSISKDNSKSQVFLKMNSLQTDDTAMYYCARNGNFYAMDYWGQGTSVTVSS
VL: QIVLTQSPAIMSASLGERVTMTCTASSSVTSSFLHWYQQKPGSSPQLWIYSTSNLASGVPARFSGSGSGTSYSLTISSMEAEDAATYYCHQYHHSPYIYTFGGGTKLEIK
B14: KB001 mouse Fab VL S31Q (Fab, V domains shown)
VH: EVQLKQSGPGLVAPSQSLSITCTVSGFSLSIYSVHWVRQPPGKGLEWLGMIWGGGSSDYNSALKSRLSISKDNSKSQVFLKMNSLQTDDTAMYYCARNGNFYAMDYWGQGTSVTVSS
VL: QIVLTQSPAIMSASLGERVTMTCTASSSVSQSFLHWYQQKPGSSPQLWIYSTSNLASGVPARFSGSGSGTSYSLTISSMEAEDAATYYCHQYHHSPYIYTFGGGTKLEIK
B15: KB001 mouse Fab VL S32Y (Fab, V domains shown)
VH: EVQLKQSGPGLVAPSQSLSITCTVSGFSLSIYSVHWVRQPPGKGLEWLGMIWGGGSSDYNSALKSRLSISKDNSKSQVFLKMNSLQTDDTAMYYCARNGNFYAMDYWGQGTSVTVSS
VL: QIVLTQSPAIMSASLGERVTMTCTASSSVSSYFLHWYQQKPGSSPQLWIYSTSNLASGVPARFSGSGSGTSYSLTISSMEAEDAATYYCHQYHHSPYIYTFGGGTKLEIK
B16: KB001 mouse Fab VL S30M (Fab, V domains shown)
VH: EVQLKQSGPGLVAPSQSLSITCTVSGFSLSIYSVHWVRQPPGKGLEWLGMIWGGGSSDYNSALKSRLSISKDNSKSQVFLKMNSLQTDDTAMYYCARNGNFYAMDYWGQGTSVTVSS
VL: QIVLTQSPAIMSASLGERVTMTCTASSSVMSSFLHWYQQKPGSSPQLWIYSTSNLASGVPARFSGSGSGTSYSLTISSMEAEDAATYYCHQYHHSPYIYTFGGGTKLEIK
B17: KB001 mouse Fab VL S30L (Fab, V domains shown)
VH: EVQLKQSGPGLVAPSQSLSITCTVSGFSLSIYSVHWVRQPPGKGLEWLGMIWGGGSSDYNSALKSRLSISKDNSKSQVFLKMNSLQTDDTAMYYCARNGNFYAMDYWGQGTSVTVSS
VL: QIVLTQSPAIMSASLGERVTMTCTASSSVLSSFLHWYQQKPGSSPQLWIYSTSNLASGVPARFSGSGSGTSYSLTISSMEAEDAATYYCHQYHHSPYIYTFGGGTKLEIK
B18: KB001 mouse Fab VL S32G (Fab, V domains shown)
VH: EVQLKQSGPGLVAPSQSLSITCTVSGFSLSIYSVHWVRQPPGKGLEWLGMIWGGGSSDYNSALKSRLSISKDNSKSQVFLKMNSLQTDDTAMYYCARNGNFYAMDYWGQGTSVTVSS
VL: QIVLTQSPAIMSASLGERVTMTCTASSSVSSGFLHWYQQKPGSSPQLWIYSTSNLASGVPARFSGSGSGTSYSLTISSMEAEDAATYYCHQYHHSPYIYTFGGGTKLEIK
B19: KB001 mouse Fab VL S30W (Fab, V domains shown)
VH: EVQLKQSGPGLVAPSQSLSITCTVSGFSLSIYSVHWVRQPPGKGLEWLGMIWGGGSSDYNSALKSRLSISKDNSKSQVFLKMNSLQTDDTAMYYCARNGNFYAMDYWGQGTSVTVSS
VL: QIVLTQSPAIMSASLGERVTMTCTASSSVWSSFLHWYQQKPGSSPQLWIYSTSNLASGVPARFSGSGSGTSYSLTISSMEAEDAATYYCHQYHHSPYIYTFGGGTKLEIK
B20: KB001 mouse Fab VL S31W (Fab, V domains shown)
VH: EVQLKQSGPGLVAPSQSLSITCTVSGFSLSIYSVHWVRQPPGKGLEWLGMIWGGGSSDYNSALKSRLSISKDNSKSQVFLKMNSLQTDDTAMYYCARNGNFYAMDYWGQGTSVTVSS
VL: QIVLTQSPAIMSASLGERVTMTCTASSSVSWSFLHWYQQKPGSSPQLWIYSTSNLASGVPARFSGSGSGTSYSLTISSMEAEDAATYYCHQYHHSPYIYTFGGGTKLEIK
B21: KB001 mouse Fab VL S32Q (Fab, V domains shown)
VH: EVQLKQSGPGLVAPSQSLSITCTVSGFSLSIYSVHWVRQPPGKGLEWLGMIWGGGSSDYNSALKSRLSISKDNSKSQVFLKMNSLQTDDTAMYYCARNGNFYAMDYWGQGTSVTVSS
VL: QIVLTQSPAIMSASLGERVTMTCTASSSVSSQFLHWYQQKPGSSPQLWIYSTSNLASGVPARFSGSGSGTSYSLTISSMEAEDAATYYCHQYHHSPYIYTFGGGTKLEIK

Molecular target: HRgpA-6H (Porphyromonas gingivalis) (UniProt P28784)
Experiment: ELISA, coated HRgpA-6H

Sequence of UniProt P28784 (P28784 228-860 limits assumed): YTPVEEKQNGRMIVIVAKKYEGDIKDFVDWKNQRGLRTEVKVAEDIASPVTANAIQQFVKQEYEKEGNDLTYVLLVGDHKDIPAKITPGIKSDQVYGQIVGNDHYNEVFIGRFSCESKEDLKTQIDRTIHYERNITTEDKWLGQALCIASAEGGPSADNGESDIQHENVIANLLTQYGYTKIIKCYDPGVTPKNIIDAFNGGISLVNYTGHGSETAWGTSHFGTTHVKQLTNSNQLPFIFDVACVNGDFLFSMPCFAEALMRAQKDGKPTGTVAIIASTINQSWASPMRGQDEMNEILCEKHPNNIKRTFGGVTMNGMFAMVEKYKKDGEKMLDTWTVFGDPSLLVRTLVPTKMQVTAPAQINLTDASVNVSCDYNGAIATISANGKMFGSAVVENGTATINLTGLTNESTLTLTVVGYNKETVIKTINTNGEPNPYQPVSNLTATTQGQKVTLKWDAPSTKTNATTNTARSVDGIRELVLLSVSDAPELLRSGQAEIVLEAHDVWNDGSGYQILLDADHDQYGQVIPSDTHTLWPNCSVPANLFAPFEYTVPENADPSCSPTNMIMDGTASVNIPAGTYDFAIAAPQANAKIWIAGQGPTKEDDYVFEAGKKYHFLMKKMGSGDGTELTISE

Row | Binder | OD450 nm | Ratio OD(Variant)/OD(WT)
1 | B1 | 0.853 | 0.99
2 | B2 | 0.808 and 0.747 | 0.937 and 0.867
3 | B3 | 0.748 and 0.805 | 0.885 and 0.953
4 | B4 | 0.77 | 0.893
5 | B5 | 0.762 | 0.902
6 | B6 | 0.751 | 0.871
7 | B7 | 0.813 | 0.943
8 | B8 | 0.702 and 0.723 | 0.814 and 0.839
9 | B9 | 0.778 and 0.793 and 0.802 | 0.903 and 0.92 and 0.93
10 | B10 | 0.86 | 0.998
11 | B11 | 0.649 | 0.856
12 | B12 | 0.744 | 0.88
13 | B13 | 0.838 and 0.817 | 0.972 and 0.948
14 | B14 | 0.83 and 0.745 and 0.782 | 0.982 and 0.882 and 0.925
15 | B15 | 0.753 | 0.891
16 | B16 | 0.818 | 0.949
17 | B17 | 0.813 | 0.943
18 | B18 | 0.759 | 0.898
19 | B19 | 0.823 | 0.955
20 | B20 | 0.808 | 0.956
21 | B21 | 0.716 | 0.847
